Drawing on US20170320946A1, this text covers percentage of cells stained (upper right quadrant) for one substance.

Assay [1] addresses huTREM-1 expressed as amino-terminal FLAG peptide fusion protein on transfected COS-7 or 293 cells (human) (UniProt Q9NP99). Briefly: FACS of 293 cells transiently transfected with TREM-1-FLAG, stained with anti-FLAG mAb M2; isotype-matched control set to the lower quadrant.
Assay [2] addresses huTREM-2 expressed as amino-terminal FLAG peptide fusion protein on transfected 293 cells (human) (UniProt Q9NZC2). Briefly: FACS of 293 cells transiently transfected with TREM-2-FLAG, stained with anti-FLAG mAb M2; isotype-matched control set to the lower quadrant.

Turning to ANTI-FLAG mAb M2 (antibody), the percentage of cells stained (upper right quadrant) in assay [1] is 21.5%; in assay [2], 17.9%.
